In paper PMC8688574 (The Journal of Biological Chemistry, 2021):

Tests used:
[1] = target: T1, catalytic core of human ATL1 WT / N417ins (Homo sapiens, UniProt Q8WXF7); experiment: limited proteolysis (proteinase K) protection; assay type: binding; conditions: 2 mM GDP; MgCl2, pH 7.5; on ice
T1 construct: catalytic core (G + middle domains), WT residues 1-449 (N417ins 1-450), C-terminal His10 tag kept, E. coli BL21(DE3)
T1 sequence (Q8WXF7 1-449): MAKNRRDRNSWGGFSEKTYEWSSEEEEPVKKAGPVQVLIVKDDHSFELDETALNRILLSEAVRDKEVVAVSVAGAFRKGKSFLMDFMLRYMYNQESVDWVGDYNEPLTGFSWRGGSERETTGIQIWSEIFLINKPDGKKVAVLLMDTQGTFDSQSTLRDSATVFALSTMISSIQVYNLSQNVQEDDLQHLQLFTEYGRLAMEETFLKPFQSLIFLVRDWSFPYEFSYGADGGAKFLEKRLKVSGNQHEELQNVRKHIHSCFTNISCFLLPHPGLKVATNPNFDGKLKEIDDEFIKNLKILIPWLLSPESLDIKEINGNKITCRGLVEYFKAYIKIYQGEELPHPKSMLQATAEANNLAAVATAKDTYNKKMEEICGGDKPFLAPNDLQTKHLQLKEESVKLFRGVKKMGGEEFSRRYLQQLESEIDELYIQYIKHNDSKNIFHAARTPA

[2] = target: T2, catalytic core of human ATL1 WT / N417ins (Homo sapiens, UniProt Q8WXF7); experiment: SEC-MALS, nucleotide-dependent dimerization; assay type: binding; conditions: 2 mM GppNHp; 4 mM MgCl2, pH 7.5; 50 μM protein
T2 construct: catalytic core (G + middle domains), WT residues 1-449 (N417ins 1-450), C-terminal His10 tag kept, E. coli BL21(DE3)
T2 sequence (Q8WXF7 with tags, fused parts or gaps INS416N): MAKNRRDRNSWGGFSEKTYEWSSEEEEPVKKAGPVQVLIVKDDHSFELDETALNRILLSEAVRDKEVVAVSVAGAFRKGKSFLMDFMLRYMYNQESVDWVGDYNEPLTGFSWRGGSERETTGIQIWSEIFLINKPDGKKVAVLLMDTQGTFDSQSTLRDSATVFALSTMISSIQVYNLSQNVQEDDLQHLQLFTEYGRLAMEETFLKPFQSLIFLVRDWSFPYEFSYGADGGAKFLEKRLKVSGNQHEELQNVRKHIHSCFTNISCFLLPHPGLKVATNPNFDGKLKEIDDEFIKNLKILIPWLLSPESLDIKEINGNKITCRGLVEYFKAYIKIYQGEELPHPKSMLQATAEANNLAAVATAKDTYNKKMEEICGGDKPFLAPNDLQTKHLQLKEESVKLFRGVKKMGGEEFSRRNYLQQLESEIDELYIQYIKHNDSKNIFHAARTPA

[3] = target: T1, catalytic core of human ATL1 WT / N417ins; experiment: SEC-MALS, nucleotide-dependent dimerization; assay type: binding; conditions: 2 mM GppNHp; 4 mM MgCl2, pH 7.5; 50 μM protein; remark: listed apart in the source
[4] = target: ATL1 N417ins catalytic core, G domain FRET construct; experiment: intermolecular FRET (G domain FRET); conditions: equilibrated for 1 h before measurement, read off a plot
[5] = target: ATL1 N417ins catalytic core C375A K400C, labelled on the middle domain with AlexaFluor-488 or AlexaFluor-647; experiment: intermolecular FRET (middle domain FRET); conditions: equilibrated for 1 h before measurement, read off a plot
[6] = target: the molecule itself; experiment: SEC-MALS; 50 μM protein loaded, preincubated with 2 mM GppNHp; Superdex Increase 200 10/300 GL; 25 mM Tris-HCl pH 7.5, 100 mM NaCl, 2 mM EGTA, 4 mM MgCl2
[7] = apo (no nucleotide), parent: est. 0.0083

Nc1nc2c(ncn2[C@@H]2O[C@H](COP(=O)(O)OP(=O)(O)O)[C@@H](O)[C@H]2O)c(=O)[nH]1 [GDP]
limited proteolysis (proteinase K) protection [1]: when bound to GDP, the WT protein is largely protected from degradation

Nc1nc2c(ncn2[C@@H]2O[C@H](COP(=O)(O)OP(=O)(O)NP(=O)(O)O)[C@@H](O)[C@H]2O)c(=O)[nH]1 [GppNHp]
SEC-MALS, nucleotide-dependent dimerization [2]: Only a minor fraction of the mutant protein eluted as a monomer upon incubation with GppNHp
SEC-MALS, nucleotide-dependent dimerization [3]: dimerized in the presence of GppNHp and GDP•AlF4^−

ATL1 WT catalytic core, G domain FRET construct N417ins
response ([4]; GDP, parent: est. 0.014): 0.011
response ([4]; GDP•AlF4-, parent: est. 0.076): 0.078
response [4, 7]: 0.009

ATL1 WT catalytic core, middle domain FRET construct N417ins
response ([5]; GDP, parent: est. 0.0098): 0.011
response ([5]; GDP•AlF4-, parent: est. 0.061): 0.066
response [5, 7]: 0.009

B1: human ATL1 WT catalytic core (residues 1–449) (domain or fragment, UniProt Q8WXF7-1 1-449, looked up)
chain: MAKNRRDRNSWGGFSEKTYEWSSEEEEPVKKAGPVQVLIVKDDHSFELDETALNRILLSEAVRDKEVVAVSVAGAFRKGKSFLMDFMLRYMYNQESVDWVGDYNEPLTGFSWRGGSERETTGIQIWSEIFLINKPDGKKVAVLLMDTQGTFDSQSTLRDSATVFALSTMISSIQVYNLSQNVQEDDLQHLQLFTEYGRLAMEETFLKPFQSLIFLVRDWSFPYEFSYGADGGAKFLEKRLKVSGNQHEELQNVRKHIHSCFTNISCFLLPHPGLKVATNPNFDGKLKEIDDEFIKNLKILIPWLLSPESLDIKEINGNKITCRGLVEYFKAYIKIYQGEELPHPKSMLQATAEANNLAAVATAKDTYNKKMEEICGGDKPFLAPNDLQTKHLQLKEESVKLFRGVKKMGGEEFSRRYLQQLESEIDELYIQYIKHNDSKNIFHAARTPA
notes: atlastin-1 (ATL1/SPG3A), human, catalytic core of G and middle domains, residues 1-449; pET21 vector; Monomer without nucleotide or with GDP, dimer with GppNHp or GDP•AlF4-; Theoretical monomer mass 52.8 kDa; also called atlastin-1; SPG3A; source: E. coli BL21(DE3), purified (Ni-NTA, desalting, S200 gel filtration); not shown: His10, C-terminal, kept
stoichiometry N [6]: 2

B2: human ATL1 N417ins catalytic core (residues 1–450) (domain or fragment, UniProt Q8WXF7-1 1-450, looked up)
chain: MAKNRRDRNSWGGFSEKTYEWSSEEEEPVKKAGPVQVLIVKDDHSFELDETALNRILLSEAVRDKEVVAVSVAGAFRKGKSFLMDFMLRYMYNQESVDWVGDYNEPLTGFSWRGGSERETTGIQIWSEIFLINKPDGKKVAVLLMDTQGTFDSQSTLRDSATVFALSTMISSIQVYNLSQNVQEDDLQHLQLFTEYGRLAMEETFLKPFQSLIFLVRDWSFPYEFSYGADGGAKFLEKRLKVSGNQHEELQNVRKHIHSCFTNISCFLLPHPGLKVATNPNFDGKLKEIDDEFIKNLKILIPWLLSPESLDIKEINGNKITCRGLVEYFKAYIKIYQGEELPHPKSMLQATAEANNLAAVATAKDTYNKKMEEICGGDKPFLAPNDLQTKHLQLKEESVKLFRGVKKMGGEEFSRRNYLQQLESEIDELYIQYIKHNDSKNIFHAARTPAT
notes: atlastin-1 (ATL1/SPG3A), human, catalytic core with the patient's in-frame insertion of an asparagine between R416 and Y417; residues 1-450. numbers count on: the mutant protein with the extra residue (1-449 of the wild type plus N417); pET21 vector; construct for enzyme assays, SEC-MALS and tethering; Theoretical monomer mass 52.9 kDa; also called N417ins mutant protein; …
stoichiometry N [6]: 2
